Assay [1] deals with T1, native human NRP-1 on the cell surface (human, UniProt O14786 22-923).
T1 construct: whole, on cells; endogenous protein; isoform and glycosaminoglycan state on the cells not defined; also called native NRP-1 on MDA-MB-231 cells; native form of NRP-1 protein on the CTCs cell surface
Description: flow cytometry, MDA-MB-231 cells, 40 ug/ml, +chondroitinase. The method, then: Chondroitinase (C2905, Sigma) was reconstituted in a 0.01% BSA aqueous solution. The MDA-MB-231 cells were treated with chondroitinase (1 U/ml) for 2 hours at 37° C. The cells were detached using cell dissociation solution non-enzymatic (C5914, Sigma). 300,000 cells per condition were washed with 2% FBS in PBS and then incubated with different antibodies of interest or their respective isotype controls at 40 μg/ml for 30 min at 4° C. After wash, an Alexa 488-conjugated anti-human immunoglobulin antibody (20022-1, Biotium) was added at 10 μg/ml for 30 min at 4° C. After a final wash, fluorescence, size and granularity of cells were measured by the LSR Fortessa cytometer (BD Biosciences).
On the technique in general: Flow cytometry measures light scatter and fluorescence of single cells or particles in a stream.

Assay [2] addresses T1, native human NRP-1 on the cell surface. Description: flow cytometry, MDA-MB-231 cells, 10 ug/ml, -heparinase.
Assay [3] shares this target. As to the kind of experiment: flow cytometry, MDA-MB-231 cells, 10 ug/ml, +heparinase.
In assay [4] the target is Replication protein A 70 kDa DNA-binding subunit (human) (UniProt P27694). Description: co-IP from A549 WT lysate, LC-MS/MS, peak area against isotype IP.
In assay [5] the target is DNA mismatch repair protein Msh2 (human) (UniProt P43246). Described as above.
For assay [6], the target named is Werner syndrome ATP-dependent helicase (human) (UniProt Q14191). Described as above.
Assay [7] addresses DNA-dependent protein kinase catalytic subunit (DNA-PK) (human) (UniProt P78527). Described as above.
The target in assay [8] is DNA topoisomerase 2-alpha (human) (UniProt P11388). Described as above.
Assay [9] has as its target DNA ligase 3 (human) (UniProt P49916). The description is as above.
For assay [10], the target named is X-ray repair cross-complementing protein 6 (human) (UniProt P12956). Described as above.
For assay [11], the target named is Histone H2A.Z (human) (UniProt P0C0S5). Described as above.
Assay [12] has as its target Poly [ADP-ribose] polymerase 2 (human) (UniProt Q9UGN5). Described as above.
In assay [13] the target is Core histone macro-H2A.1 (human) (UniProt O75367). The description is as above.
The target of assay [14] is DNA-directed RNA polymerase I subunit RPA1 (human) (UniProt O95602). The assay is described as above.
The target in assay [15] is FACT complex subunit SPT16 (human) (UniProt Q9Y5B9). Described as above.
Assay [16] addresses DNA topoisomerase 2-beta (human) (UniProt Q02880). Described as above.
The target in assay [17] is Sister chromatid cohesion protein PDS5 homolog B (human) (UniProt Q9NTI5). The assay is described as above.
Assay [18] concerns the target Poly [ADP-ribose] polymerase 1 (human) (UniProt P09874). The assay is described as above.
Assay [19] deals with X-ray repair cross-complementing protein 5 (human) (UniProt P13010). Described as above.
The target of assay [20] is Histone H3.1 (human) (UniProt P68431). The description is as above.

B1: variant 4 of a-NRP1_LEP n° 1 (antibody, V domains shown)
VH: EVQLVESGGGLVQPGGSLRLSCAASGFTFSSFGMHWVRQAPGKGLEWVAYISSGSSTIHYADSVKGRFTISRDNAKNSLYLQMNSLRAEDTAMYYCARRHYGSSRYWYFDVWGQGTTVTVSS
VL: EIVLTQSPATLSLSPGERATLSCRASQSVKSYLAWYQQKPGQAPRLLIYYASSRATGIPARFSGSGSGTDFTLTISSLEPEDFAVYYCQQYSESPYTFGQGTKLEIK
notes: humanized variant of 21B10; isotype control hIgG4; also called variant 4 a-NRP1_LEP; variant n°4 a-NRP1_LEP
On to B1, for which the percentage of binding in [1] is 86.4%; in assay [2], 12.4%; in [3], 10.1%. In addition, the Ratio Area V4/IgG4 in [4] was determined as 2; in [5] it was 1; in [6], 540; in assay [7], 6.06; in assay [8], 1440; in assay [9], 78.8. The Ratio Area V4/IgG4 stood at 1.9 in assay [10]; 22 in [11]; 259 in assay [12]; 1130 in [13]; 3210 in assay [14]; 6030 in assay [15]. Further, the Ratio Area V4/IgG4 in [16] worked out at 369; in assay [17], 358; in assay [18], 546; in assay [19], 2.3; in assay [20] it was 82.5.

The values are drawn from US20260226176A1 (THERANOVIR, published 2026).
